Molecular target: HA-PP1β, expressed in HEK 293 cells (human) (UniProt P62140)
Assay: co-IP

Sequence of HA-PP1β, expressed in HEK 293 cells (human) (P62140 whole entry): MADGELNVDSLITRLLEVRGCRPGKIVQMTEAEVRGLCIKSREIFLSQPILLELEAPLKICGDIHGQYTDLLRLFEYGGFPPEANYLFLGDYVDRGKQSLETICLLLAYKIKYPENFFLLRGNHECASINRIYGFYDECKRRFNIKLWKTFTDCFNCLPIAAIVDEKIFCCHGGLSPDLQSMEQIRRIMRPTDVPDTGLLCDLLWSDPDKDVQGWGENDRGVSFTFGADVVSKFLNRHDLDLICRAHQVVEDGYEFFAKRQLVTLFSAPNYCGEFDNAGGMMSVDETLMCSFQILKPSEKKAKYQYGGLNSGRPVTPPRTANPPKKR

For “FLAG-KAP1 (wild type), expressed in HEK 293 cells (from UniProt Q13263 1-835) (natural protein)”, which extent of interaction relative to that with PP1α, after doxorubicin is on record?
The extent of interaction relative to that with PP1α, after doxorubicin was 30%.
